Results reported in the supplement of paper PMC10567573.
± gives the standard deviation.

Experiment: protein stability index of a GFP-peptide fusion (GPS, HEK-293T) (PSI 1-6); higher = more stable
[1] = treatment: DMSO, c terminus: a fixed tail appended
[2] = treatment: MLN4924 1 uM, 8 h, c terminus: a fixed tail appended
[3] = treatment: DMSO, c terminus: native
[4] = treatment: MLN4924 1 uM, 8 h, c terminus: native
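Also: 24-mer peptide tiles fused after GFP, lentivirally expressed, FACS-sorted into six equal bins by GFP/DsRed ratio, decoded by Illumina sequencing, PSI is the read-weighted mean bin number.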

Row | Sequence | protein stability index [1] | protein stability index [2] | protein stability index [3] | protein stability index [4]
1 | SNFEQTQIQEFKEAFTLMDQNRDG [MYL5] | 5.11 ± 0.2 | 4.93 ± 0.33 | – | –
2 | LAPNFRWAIPNRQINDGMGGDGDD [BEX3] | 4.77 ± 0.22 | 4.6 ± 0.26 | – | –
3 | GIVLQGPALCFAAAIFSLFFVPLS [TMEM175] | 2.89 ± 0.34 | 2.83 ± 0.17 | – | –
4 | LSGASPFLGETKQETLTNISAVNY [DAPK3] | 3.73 ± 0.2 | 3.85 ± 0.25 | – | –
5 | APEFIKVRENLRRIATLTSEEREL [FAM107A] | 4.48 ± 0.31 | 4.62 ± 0.16 | – | –
6 | SSTCGQLASYPLALVRTRMQAQAS [SLC25A25] | 2.74 ± 0.23 | 3 ± 0.1 | – | –
7 | PMAADEGSAEKQAGEAHMAADGET [EHMT1] | 5.6 ± 0.17 | 5.66 ± 0.082 | – | –
8 | DFHYCDREHVCRKDQRNPPSLGRV [RBMY1A1] | 3.27 ± 0.27 | 3.8 ± 0.4 | – | –
9 | ICIMDAENITTVSVIKDHHTRSIT [WDR88] | 2.34 ± 0.31 | 2.18 ± 0.24 | – | –
10 | RDFAETHNCVDLMQAAEVFSQKHF [KLHL12] | 3.31 ± 0.23 | 3.21 ± 0.49 | – | –
11 | GILRRILRTLRDFPAEERARVLDR [ANKRD9] | 2.39 ± 0.28 | 2.47 ± 0.65 | – | –
12 | KVKWTHEEDEQLRALVRQFGQQDW [MYBL2] | 3.19 ± 0.44 | 3.44 ± 0.12 | – | –
13 | GGTVKLADFGLARIYSYQMALTPV [CDK4] | 2.36 ± 0.27 | 2.17 ± 0.11 | – | –
14 | TRSCSSASSRSQQSSKRSSRSVED [CLK3] | 5.047 ± 0.044 | 5.02 ± 0.22 | – | –
15 | NPAPAAPCPLGEPKTQACSGSESP [MYCL] | 5.57 ± 0.23 | 5.63 ± 0.15 | – | –
16 | GDLQETTVVTGLGPDTQDLEGQSP [PBXIP1] | 5.62 ± 0.23 | 5.58 ± 0.2 | – | –
17 | SLLRPLNSLAALDLSGIQTSDAAF [ZER1] | 2.87 ± 0.15 | 2.9 ± 0.24 | – | –
18 | LSRRQLCPLTPGPGKALGPAATMA [C2CD2L] | 2.93 ± 0.37 | 3.13 ± 0.38 | – | –
19 | DRYIAICNPLRYSVLMGHGVCMGL [OR10K2] | 2.54 ± 0.27 | 2.43 ± 0.43 | – | –
20 | YRVSDVTKAGHSLELIEPLIKFQV [VDR] | 1.99 ± 0.4 | 2.12 ± 0.21 | – | –
21 | EPPQDSHSRKTVLIKTIETRNGEV [PRPH] | 4.67 ± 0.28 | 4.79 ± 0.4 | – | –
22 | ADPLRVSSRDKLTEMAASSQGNFE [FUNDC2] | 4.96 ± 0.2 | 5.18 ± 0.26 | – | –
23 | IELEGISVMVMREILDYIFSGQIR [GAN] | 3.37 ± 0.23 | 2.86 ± 0.49 | – | –

Row | Sequence | protein stability index [1] | protein stability index [2] | protein stability index [3] | protein stability index [4]
24 | LKLVAHPRAKSKVWKYFGFDTNAE [ZBED1] | 2.23 ± 0.39 | 2.25 ± 0.26 | – | –
25 | LYLFGGHHSRGNTNKFYMLDSRST [KLHDC2] | 2.16 ± 0.12 | 2.17 ± 0.18 | – | –
26 | DVKDWWLFGFYFCMPLVCTAIFYT [EDNRA] | 2.76 ± 0.45 | 3.56 ± 0.84 | – | –
27 | AAASAKDIYYNNMEEVCGGEKPYL [ATL3] | 4.21 ± 0.25 | 4.01 ± 0.069 | – | –
28 | VQEVMEEEWNALQSVENCPEDLAQ [RPAIN] | 5.51 ± 0.21 | 5.48 ± 0.089 | – | –
29 | KNIIHKTSGKRYVYRFVCDLQNLL [ETS2] | 2.96 ± 0.48 | 2.69 ± 0.6 | – | –
30 | VADMMYFCQMLAVVETINAAIGVT [HACD3] | 3.06 ± 0.42 | 3.2 ± 0.36 | – | –
31 | SKAAAGKMNLYESFAQATQLGDLH [INTS3] | 3.63 ± 0.25 | 3.58 ± 0.23 | – | –
32 | HNSGPPPPPARGRGAPPPPPSRAP [WASL] | 5.25 ± 0.29 | 5.06 ± 0.15 | – | –
33 | RFQDGDNILEKEVLPPIHAYGNRT [FEM1B] | 3.96 ± 0.14 | 4.001 ± 0.01 | – | –
34 | NSVTAGDYSRPLHISTFINELDSG [TSN] | 3.54 ± 0.19 | 3.71 ± 0.18 | – | –
35 | DAILYYYQSGGRLKRPVNVPFDIF [KCNA4] | 2.58 ± 0.54 | 2.52 ± 0.63 | – | –
36 | VNDKRRKKSGEKEQHISKCKKAFR [KMT2E] | 3.76 ± 0.14 | 3.86 ± 0.27 | – | –
37 | AAGELESMGFSARYNFTPDPDFKD [NETO1] | 4.71 ± 0.2 | 4.61 ± 0.18 | – | –
38 | RVDFEEFVELIGPKLREETAHMLG [CABP4] | 2.58 ± 0.25 | 2.73 ± 0.39 | – | –
39 | YERTLGQYQYERYGAVELSGAGRR [IRX6] | 3.75 ± 0.36 | 3.81 ± 0.3 | – | –
40 | GSSRSPGSKARAEGRGPVTPLHLD [PLEKHN1] | 4.91 ± 0.16 | 4.74 ± 0.21 | – | –
41 | SYKIEEISPSTLKNSLFPSPISSI [KCNK9] | 2.6 ± 0.21 | 2.7 ± 0.33 | – | –
42 | ISENRKRQWPTKSQTDRGASAGKR [SDE2] | 4.7 ± 0.28 | 4.94 ± 0.073 | – | –
43 | SGYALAEDGKRCVAVDYCASENHG [MATN2] | 4.28 ± 0.64 | 4.36 ± 0.21 | – | –
44 | NTLRCQLGDRLNVEVDAAPAVDLN [KRT33B] | 4.47 ± 0.19 | 4.39 ± 0.22 | – | –
45 | GMVTRCIIEVLSNALSKSSAPPIT [CHGB] | 3.07 ± 0.29 | 3.08 ± 0.23 | – | –
46 | RPATAADCSDILRLIKELAKYEYM [SAT1] | 2.06 ± 0.14 | 2.48 ± 0.18 | – | –

Row | Sequence | protein stability index [1] | protein stability index [2] | protein stability index [3] | protein stability index [4]
47 | PCVRPGVSGSPVTQNHAASALPTG [FBF1] | 4.45 ± 0.26 | 4.5 ± 0.06 | – | –
48 | KSGEEAVTVLEDLEKGLEPEPQVP [ZNF232] | 5.63 ± 0.17 | 5.62 ± 0.16 | – | –
49 | MTVKQYEAARLEYDAYRTDLEELS [ARFIP2] | 3.84 ± 0.19 | 3.97 ± 0.21 | – | –
50 | LVLVVNTLRRIQASMAPAAALPPV [SERTAD1] | 2.35 ± 0.099 | 2.33 ± 0.2 | – | –
51 | RERIERVRRIHIKRPDDRAHLHQ [KCTD10] | – | – | 4.2 ± 0.36 | 4.51 ± 0.35
52 | VGYGDMYPVTIGGKIVGSLCAIAG [KCNA1] | 2.09 ± 0.55 | 2.45 ± 0.28 | – | –
53 | MPHARTETSVGTYESHSTSELEDL [TPD52L3] | 5.43 ± 0.18 | 5.37 ± 0.3 | – | –
54 | QKYDPDKDEWHKVFDLPESLGGIR [KLHL13] | 3.55 ± 0.23 | 3.93 ± 0.29 | – | –
55 | VRILLRRGVDVSLQGKDAWLPLHY [RIPK4] | 2.99 ± 1.7 | 2.29 ± 0.44 | – | –
56 | QTWVRDHHPENGEEAVTVLEDLES [ZNF24] | 5.34 ± 0.21 | 5.43 ± 0.17 | – | –
57 | ILENSSQKENVFKCDSLKEECIPE [FAN1] | 4.68 ± 0.37 | 4.95 ± 0.09 | – | –
58 | QTESELQELSEVLELLSAPELKSL [FAN1] | 4.1 ± 0.19 | 4.11 ± 0.11 | – | –
59 | LPQETNLTLKVCKPQAPQKLDPTL | 3.58 ± 0.36 | 3.91 ± 0.49 | – | –
60 | QNPEAIAAAAMYTFLPDNFSPAKP [MYORG] | 3.79 ± 0.15 | 3.86 ± 0.2 | – | –
61 | KAMFSGRVEVLTDAGGWVLIDRSG [KCTD13] | 2.19 ± 0.21 | 2.48 ± 0.47 | – | –
62 | LAEGVSASLHTLLGDPCPMLESPG [HDAC6] | 4 ± 0.28 | 4.17 ± 0.29 | – | –
63 | AWAAHTRLFQVVGKTDDTLALLNL [TMEM175] | 2.25 ± 0.13 | 2.03 ± 0.042 | – | –
64 | SATNVTCYYQPAPYVSDGNFSNYY [TENT5C] | 2.05 ± 0.29 | 2.14 ± 0.28 | – | –
65 | HITKLKPWSLFDVLVEKYGWPHED [SRPK2] | 2.23 ± 0.33 | 2.38 ± 0.11 | – | –
66 | ALLIVDSATALYRTDYSGRGELSA [RAD51] | 2.17 ± 0.33 | 2.27 ± 0.42 | – | –
67 | QVYYFGPCGKYNAMVLELLGPSLE [CSNK1G1] | 3.52 ± 1.8 | 1.92 ± 0.25 | – | –
68 | SSEKLNLQKDLETRPTQHELRLYK [CEP70] | 4.12 ± 0.16 | 4.1 ± 0.36 | – | –
69 | IHDSEFKEYTTRTQAPPSVILGVT [DENND6A] | 3.22 ± 0.17 | 3.29 ± 0.31 | – | –

Row | Sequence | protein stability index [1] | protein stability index [2] | protein stability index [3] | protein stability index [4]
70 | ILDAMAEETRQKQLLADEKMKQLT [TRIM35] | 4.52 ± 0.23 | 4.68 ± 0.21 | – | –
71 | SGTCSPLRHSFQKQQREKTRWLNS [ADD1] | 2.96 ± 0.26 | 3.11 ± 0.059 | – | –
72 | SEKAMLRSRIEEQSQLICILKRRS [CCDC89] | 3.07 ± 0.2 | 3.19 ± 0.15 | – | –
73 | HLFAGAEVILLVVMAYDRYMAICK [OR4A15] | 2.67 ± 0.29 | 3.02 ± 0.68 | – | –
74 | PCYSRQFITSCPCWLEILLNNPR [SMAD6] | – | – | 2.92 ± 0.28 | 2.77 ± 0.42
75 | YKENFLKRFQLTKLPPYLIFCIKR [USP39] | 3.02 ± 0.77 | 2.82 ± 0.43 | – | –
76 | QIEKTTNREACRDLSGRRLRDVNH [SDE2] | 4.18 ± 0.24 | 4.11 ± 0.6 | – | –
77 | CSGTELSLAHCRHDGEDVACPQGG [LOXL2] | 4.78 ± 0.73 | 4.3 ± 0.24 | – | –
78 | CVQCGKSYSQSSNLFRHQRRHNAE [ZNF24] | 4 ± 0.16 | 4.42 ± 0.42 | – | –
79 | QSGRDLQQYQSQAKQLFRKLNEQS [SEC22B] | 3.72 ± 0.29 | 3.83 ± 0.27 | – | –
80 | KEEKEDEISLEDLIERERSALGPN [ZC3H15] | 5.31 ± 0.35 | 5.26 ± 0.37 | – | –
81 | IGGNHLKGFSHLDVMLVECYDPKG [KLHL14] | 2.11 ± 0.47 | 2.21 ± 0.34 | – | –
82 | CQQNMIQELIETNQQLRNELQLEQ [CEP70] | 4.12 ± 0.26 | 3.85 ± 0.51 | – | –
83 | EQHNWNIEAAVQDRLNEQEGVPSV [FAF2] | 5.05 ± 0.22 | 5.17 ± 0.32 | – | –
84 | GIVESIQIMKEGKATASEAVDCKW [NETO1] | 3.71 ± 1.3 | 3.99 ± 0.2 | – | –
85 | IHSIALSTFASLIGPFGGFFASGF [CDS2] | 3.12 ± 0.2 | 2.99 ± 0.16 | – | –
86 | MISTYEFGKSFFQRLNQDRLLGG [SLC25A39] | – | – | 3.21 ± 0.83 | 2.44 ± 0.27
87 | QNPQITQLKIAANPFAKGFRENGR [TBX6] | 3.33 ± 0.29 | 3.35 ± 0.46 | – | –
88 | QQLHARYVLNLLYETKKHLVQLPN [PPEF2] | 2.66 ± 0.35 | 2.32 ± 0.22 | – | –
89 | AVVASSVNSYYSSPAQQVPKNPAL [TOR1AIP2] | 3.51 ± 0.16 | 3.46 ± 0.18 | – | –
